Data taken from article PMC6140609 (Oncoimmunology, 2018).

B1: CD27L-CD40L (ligand, human)
chain: SLGWDVAELQLNHTGPQQDPRLYWQGGPALGRSFLHGPELDKGQLRIHRDGIYMVHIQVTLAICSSTTASRHHPTTLAVGICSPASRSISLLRLSFHQGCTIASQRLTPLARGDTLCTNLTGTLLPSRNTDETFFGVQWVRPGGGGSGGGGSGGGGSGDQNPQIAAHVISEASSKTTSVLQWAEKGYYTMSNNLVTLENGKQLTVKRQGLYYIYAQVTFCSNREASSQAPFIASLCLKSPGRFERILLRAANTHSSAKPCGQQSIHLGGVFELQPGASVFVNVTDPSQVSHGTGFTSFGLLKL
B2: CD40L-OX40L (ligand, human)
chain: GDQNPQIAAHVISEASSKTTSVLQWAEKGYYTMSNNLVTLENGKQLTVKRQGLYYIYAQVTFCSNREASSQAPFIASLCLKSPGRFERILLRAANTHSSAKPCGQQSIHLGGVFELQPGASVFVNVTDPSQVSHGTGFTSFGLLKLGGGGSGGGGSGGGGSQVSHRYPRIQSIKVQFTEYKKEKGFILTSQKEDEIMKVQNNSVIINCDGFYLISLKGYFSQEVNISLHYQKDEEPLFQLKKVRSVNSLMVASLTYKDKVYLNVTTDNTSLDDFHVNGGELILIHQNPGEFCVL
B3: OX40L-CD40L (ligand, human)
chain: QVSHRYPRIQSIKVQFTEYKKEKGFILTSQKEDEIMKVQNNSVIINCDGFYLISLKGYFSQEVNISLHYQKDEEPLFQLKKVRSVNSLMVASLTYKDKVYLNVTTDNTSLDDFHVNGGELILIHQNPGEFCVLGGGGSGGGGSGGGGSGDQNPQIAAHVISEASSKTTSVLQWAEKGYYTMSNNLVTLENGKQLTVKRQGLYYIYAQVTFCSNREASSQAPFIASLCLKSPGRFERILLRAANTHSSAKPCGQQSIHLGGVFELQPGASVFVNVTDPSQVSHGTGFTSFGLLKL
B4: CD27L-4-1BBL (ligand, human)
chain: SLGWDVAELQLNHTGPQQDPRLYWQGGPALGRSFLHGPELDKGQLRIHRDGIYMVHIQVTLAICSSTTASRHHPTTLAVGICSPASRSISLLRLSFHQGCTIASQRLTPLARGDTLCTNLTGTLLPSRNTDETFFGVQWVRPGGGGSGGGGSGGGGSGGGGSREGPELSPDDPAGLLDLRQGMFAQLVAQNVLLIDGPLSWYSDPGLAGVSLTGGLSYKEDTKELVVAKAGVYYVFFQLELRRVVAGEGSGSVSLALHLQPLRSAAGAAALALTVDLPPASSEARNSAFGFQGRLLHLSAGQRLGVHLHTEARARHAWQLTQGATVLGLFRVTPEIPAGLPSPRSE
B5: CD27L-OX40L (ligand, human)
chain: SLGWDVAELQLNHTGPQQDPRLYWQGGPALGRSFLHGPELDKGQLRIHRDGIYMVHIQVTLAICSSTTASRHHPTTLAVGICSPASRSISLLRLSFHQGCTIASQRLTPLARGDTLCTNLTGTLLPSRNTDETFFGVQWVRPGGGGSGGGGSGGGGSQVSHRYPRIQSIKVQFTEYKKEKGFILTSQKEDEIMKVQNNSVIINCDGFYLISLKGYFSQEVNISLHYQKDEEPLFQLKKVRSVNSLMVASLTYKDKVYLNVTTDNTSLDDFHVNGGELILIHQNPGEFCVL
B6: OX40L-CD27L (ligand, human)
chain: QVSHRYPRIQSIKVQFTEYKKEKGFILTSQKEDEIMKVQNNSVIINCDGFYLISLKGYFSQEVNISLHYQKDEEPLFQLKKVRSVNSLMVASLTYKDKVYLNVTTDNTSLDDFHVNGGELILIHQNPGEFCVLGGGGSGGGGSGGGGSSLGWDVAELQLNHTGPQQDPRLYWQGGPALGRSFLHGPELDKGQLRIHRDGIYMVHIQVTLAICSSTTASRHHPTTLAVGICSPASRSISLLRLSFHQGCTIASQRLTPLARGDTLCTNLTGTLLPSRNTDETFFGVQWVRP
B7: OX40L-4-1BBL (ligand, human)
chain: QVSHRYPRIQSIKVQFTEYKKEKGFILTSQKEDEIMKVQNNSVIINCDGFYLISLKGYFSQEVNISLHYQKDEEPLFQLKKVRSVNSLMVASLTYKDKVYLNVTTDNTSLDDFHVNGGELILIHQNPGEFCVLGGGGSGGGGSGGGGSGGGGSREGPELSPDDPAGLLDLRQGMFAQLVAQNVLLIDGPLSWYSDPGLAGVSLTGGLSYKEDTKELVVAKAGVYYVFFQLELRRVVAGEGSGSVSLALHLQPLRSAAGAAALALTVDLPPASSEARNSAFGFQGRLLHLSAGQRLGVHLHTEARARHAWQLTQGATVLGLFRVTPEIPAGLPSPRSE
B8: CD40L-CD27L (ligand, human)
chain: GDQNPQIAAHVISEASSKTTSVLQWAEKGYYTMSNNLVTLENGKQLTVKRQGLYYIYAQVTFCSNREASSQAPFIASLCLKSPGRFERILLRAANTHSSAKPCGQQSIHLGGVFELQPGASVFVNVTDPSQVSHGTGFTSFGLLKLGGGGSGGGGSGGGGSSLGWDVAELQLNHTGPQQDPRLYWQGGPALGRSFLHGPELDKGQLRIHRDGIYMVHIQVTLAICSSTTASRHHPTTLAVGICSPASRSISLLRLSFHQGCTIASQRLTPLARGDTLCTNLTGTLLPSRNTDETFFGVQWVRP

Molecular target: the molecule itself
Experiment: SEC

Molecule	stoichiometry N
B1	3
B2	3
B3	3
B4	3
B5	3
B6	3
B7	3

molecular target: Human OX40-Fc (human) (UniProt P43489); experiment: ELISA
Sequence (P43489 29-214): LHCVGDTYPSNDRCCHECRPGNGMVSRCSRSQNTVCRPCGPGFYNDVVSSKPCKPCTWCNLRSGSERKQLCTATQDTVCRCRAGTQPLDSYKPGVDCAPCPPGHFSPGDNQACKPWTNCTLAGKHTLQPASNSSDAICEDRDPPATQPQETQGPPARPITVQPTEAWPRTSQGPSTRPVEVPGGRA

Molecule	EC50 [nM]
scOX40L-scCD27L (from UniProt P23510 51-183; P23510 51-183; P23510 51-183; P32970 52-193; P32970 52-193; P32970 52-193) (ligand)	60.2
scCD27L-scOX40L (from UniProt P32970 52-193; P32970 52-193; P32970 52-193; P23510 51-183; P23510 51-183; P23510 51-183) (ligand)	14.3

molecular target: Human CD40-Fc (human, UniProt P25942 21-193); experiment: ELISA
Sequence (P25942 21-193): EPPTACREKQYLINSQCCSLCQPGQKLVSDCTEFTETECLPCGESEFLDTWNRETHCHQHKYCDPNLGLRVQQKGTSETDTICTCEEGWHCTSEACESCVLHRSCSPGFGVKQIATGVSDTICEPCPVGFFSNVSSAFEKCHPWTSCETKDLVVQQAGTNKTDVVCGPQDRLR

Molecule	EC50 [nM]
B8	12.3
